Source: US20060051363A1, “Protein inducing cell death of helicobacter pylori” (JAPAN SCIENCE AND TECHNOLOGY AGENCY, priority 2002, published 2006)

T1: subunit 2 of the apoptosis-inducing protein from Helicobacter pylori (amino acids 380-567 of the protein … (Helicobacter pylori strain 26695))
T1 construct: Purified from the membrane fraction of H. pylori strain 26695; this follows from the lengths; also called about 22 kDa band
T1 chain: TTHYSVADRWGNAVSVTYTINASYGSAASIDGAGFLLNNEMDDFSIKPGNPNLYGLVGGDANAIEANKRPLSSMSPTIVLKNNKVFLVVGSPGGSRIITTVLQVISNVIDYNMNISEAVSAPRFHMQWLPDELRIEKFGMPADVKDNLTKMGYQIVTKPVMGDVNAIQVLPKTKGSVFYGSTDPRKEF

B1: subunit 1 of the apoptosis-inducing protein from Helicobacter pylori (amino acids 27-379 of the protein encoded by the HP1118 gamma-glutamyl transferase gene) (enzyme)
chain: ASYPPIKNTKVGLALSSHPLASEIGQKVLEEGGNAIDAAVAIGFALAVVHPAAGNIGGGGFAVIHLANGENVALDFREKAPLKATKNMFLDKQGNVVPKLSEDGYLAAGVPGTVAGMEAMLKKYGTKKLSQLIDPAIKLAENGYAISQRQAETLKEARERFLKYSSSKKYFFKKGHLDYQEGDLFVQKDLAKTLNQIKTLGAKGFYQGQVAELIEKDMKKNGGIITKEDLASYNVKWRKPVVGSYRGYKIISMSPPSSGGTHLIQILNVMENADLSALGYGASKNIHIAAEAMRQAYADRSVYMGDADFVSVPVDKLINKAYAKKIFDTIQPDTVTPSSQIKPGMGQLHEGSN
notes: Purified from the membrane fraction of H. pylori strain 26695; this follows from the lengths; also called about 40 kDa band
B2: protein purified in example 1: Helicobacter pylori protein complex of two subunits (SEQ ID NO: 1 and 2; about 40 kDa and 22 kDa) encoded by the HP1118 gene (protein)
chain 1: B1 chain
chain 2: T1 chain
modifications: Helicobacter Pylori
notes: about 40 kDa and 22 kDa) encoded by the HP1118 gene

What was measured:
[1] = biological target: T1, subunit 2 of the apoptosis-inducing …; test: native PAGE under acid condition (single band), then 2D SDS-PAGE (two bands, about 40 kDa and 22 kDa)
[2] = tested on: human uterine cervix cancer-derived HeLa cell; test: cytotoxic effect assayed using WST-1 kit in HeLa cells; assay type: cell-based; conditions: FIG. 7
Procedure: (§1) In this example, the apoptosis-inducing activity of the protein purified in example 1 was examined in human gastric adenocarcinoma cell line AGS (ATCC CRL 1739), in human gastric carcinoma cell line KATO III (Human Science Research Resources Bank, Cat No. JCRB0611 (ATCC, HTB-103)) and in human uterine cervix cancer-derived HeLa cell (Human Science Research Resources Bank, Cat No. JCRB9004).
(§2) The cytotoxic effect was assayed using WST-1 kit (Roche Diagnotics).

[3] = tested on: AGS cells; test: induction of apoptosis in AGS cells (Hoechst 33342 nuclear staining, fluorescence microscopy); assay type: cell-based, human; conditions: Hoechst 33342 staining, FIG. 9
Description: Also, the induction of apoptosis in AGS cells by the protein was examined: Trypsinized apoptotic and control cells were collected and stained with a fluorescent dye (Hoechst 33342), which stains cellular nuclei. Since the nuclei of apoptotic cells are highly condensed and fragmented, apoptotic cells are easily differentiated from control cells under fluorescence microscopy. Cells were put on a slide glass, the number of apoptotic cells and control cells were counted and the percentage of apoptotic cells in total cells was enumerated. At least total 500 cells were counted for each experiment.

[4] = tested on: human gastric adenocarcinoma cell line AGS; test: cytotoxic effect assayed using WST-1 kit in AGS cells; assay type: cell-based; conditions: FIG. 7
Procedure: In this example, the apoptosis-inducing activity was measured as the cytotoxic activity in human gastric adenocarcinoma cell line AGS (ATCC CRL 1739) using Quick Cell Proliferation Assay Kit (Cat.BV-K301-10) (BioVision). The cell viability (surviving cell), from which an apoptosis-inducing activity is calculated, is based on the activity of intracellular mitochondrial dehydrogenase activity as a marker enzyme and is measured by the absorbance at 450 nm after 1 hr incubation at 37° C. with the substrate of the enzyme. The absorbance indicates the cell viability. The more cytotoxic, the less the absorbance is according to the mesurement.
as §1, §2

[5] = tested on: human gastric carcinoma cell line KATO III; test: cytotoxic effect assayed using WST-1 kit in KATO III cells; assay type: cell-based; conditions: FIG. 8
Procedure: as §1, §2

| Molecule | binding result [1] | cytotoxic activity [2] | induction of apoptosis (percentage of apoptotic cells in total cells) [3] | cytotoxic activity [4] | cytotoxic activity [5] |
| --- | --- | --- | --- | --- | --- |
| B1 | binds |  |  |  |  |
| B2 |  | has the cytotoxic activity | mainly ascribed to apoptosis | has the cytotoxic activity | has the cytotoxic activity |
